Assays:
[1] = molecular target: Tth Man5 β-mannosidase from Thermotoga thermarum DSM 5069 (Thermotoga thermarum DSM 5069); experiment: SEC; Superdex 200 10/30 GL column on an AKTA FPLC system; MW from the calibration curve of the gel filtration column
purified protein = substrate: O=[N+]([O-])c1ccc(O[C@@H]2O[C@H](CO)[C@@H](O)[C@H](O)[C@@H]2O)cc1; experiment: purified protein; details: 50 mM imidazole-potassium buffer pH 5.5, 85°C, error given as ±0.5

Row | stoichiometry N [1] | Molecule | Km (purified protein) | Vmax (purified protein) | kcat (purified protein) | kcat/Km (purified protein)
1 | 7 | Tth Man5 β-mannosidase from Thermotoga thermarum DSM 5069 (enzyme) | – | – | – | –
2 | – | Tth Man5 β-mannosidase (Pseudothermotoga thermarum DSM 5069) (protein) MDFLLGINYWSRSGAMYMWEDEYFNEEVIENEIIEMKNLGMNICRSFLFLPTFFPKPNKISEKHVERYLKFLNLCEEHGLKTLLTFIVGHMSGENFDPPFRNQRDLYMDEFMLQQQCFFVKSIVEKVRSSPAVYGYILSNEMPLYGGTGEPEKVLNWVKKLVEVIKSVDPTRPVGTGDGCWNVFGGENGFNLREISKIVDYLGPHVYLSETDEYRHSMIPEFVIRYLSQYDLPILYEEFGASSAQALDENIALYYREVLINCLINGAIGALGWCLNDFNYPNMKPYLHHPFELKFGIFKVDGARKPAAEEIVKFKNFVDSLENIQYPNAEACILVPSYYNKQYPFSFDDPKETFKHLLQATVLCAKAGFVVDLVEEENYKRWKSYKLIILPSERKYLATTWENLHKYVQAGGNLYISYYWGKYDFHQGIWSQNLESLIGCKLNLRYGLTSSLPSKVKLEYGGLTWKLNVEKCNEWEKSYAPIVSILETAESIELGQSDLQLVKNKVGSGKVFFINFPLEHILSVNEKINLSDLSHLIYRCIAKQASLNLCYCDNQRVRVRKIKSGRKTLYLIQNIAWDKEQVQTIFDNSSTYHVQIELDPKEYKLLNF | 4.36 ± 0.05 mM | 227 µmol/min/mg | 1920 s⁻¹ | 441000 M⁻¹ s⁻¹
